Experimental data: US20240209076A1 (KODIAK SCIENCES, published 2024)
Residue numbers refer to the chain shown, from its start. Names may count otherwise.

Experiments:
[1] = target: T1, human IL-6 (human, UniProt P05231 30-212); test: SPR Biacore, supernatant, Protein A capture, 37 C
Procedure, shortened: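 Antibodies from 1:20-diluted culture supernatant in HBS-EP+ were captured on a Protein A chip at 37 C, with 10 mM glycine pH 1.7 regeneration. Sensorgrams were double-reference subtracted and fitted to a 1:1 Langmuir model.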
T1 sequence (P05231 30-212 limits assumed): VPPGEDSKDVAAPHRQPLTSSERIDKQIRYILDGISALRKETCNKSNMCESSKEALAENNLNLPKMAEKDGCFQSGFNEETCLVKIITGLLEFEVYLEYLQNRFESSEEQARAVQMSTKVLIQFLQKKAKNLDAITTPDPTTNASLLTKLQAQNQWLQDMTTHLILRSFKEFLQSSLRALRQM

[2] = target: T1, human IL-6; test: SPR Biacore, purified, Protein A capture, 37 C
Description: (§1) Antibodies were captured on a Protein A chip (GE) by injecting 1:20 cell supernatant dilutions at 10 μL/min for 60 seconds. […] The sensor chip was regenerated by a 60 seconds injection of 10 mM Glycine pH 1.7 at the flow rate of 50 μL/min. […] For this setup, 1 μg/mL of purified antibody was injected over a Protein A chip at 10 μL/min for 25 seconds. […] The sensor chip was regenerated by a 60 seconds injection of 10 mM Glycine pH 1.7 at flow rate of 50 μL/min. Data analysis for supernatant and purified samples were performed using BIAevaluation software (GE). All sensorgrams were double reference subtracted and fit using a 1:1 Langmuir binding model.

[3] = target: T2, human IL-6 (human, UniProt P05231 30-212); test: SPR Biacore, purified Ab on Protein A chip, 37 C
T2 construct: IL-6 flowed over captured antibodies
Description: as §1
T2 sequence (P05231 30-212 limits assumed): as above

[4] = target: T2, human IL-6; test: SPR Biacore, supernatant Ab on Protein A chip, 37 C
[5] = target: T3, human IL-6 (human, UniProt P05231 30-212); test: SPR (Biacore), purified antibody on Protein A chip, IL-6 flowed, 37 C
Description: as §1
T3 sequence (P05231 30-212 limits assumed): as above

[6] = target: T3, human IL-6; test: SPR (Biacore), supernatant antibody on Protein A chip, IL-6 flowed, 37 C
[7] = target: T4, recombinant human IL-6 (human, UniProt P05231 30-212); test: SPR Biacore, purified dual inhibitor on Protein A chip, IL-6 analyte, 37 C
T4 construct: Bought protein
T4 sequence (P05231 30-212 limits assumed): as above

[8] = target: T4, recombinant human IL-6; test: SPR Biacore, supernatant dual inhibitor on Protein A chip, IL-6 analyte, 25 C

B1: Anti-IL-6 antibody, heavy chain S35H, G66D / light chain M32L, M50D, N52S, M88Q (antibody, IgG1, V domains shown)
VH: EVQLVESGGGLVQPGGSLRLSCAASGFTFSPFAMHWVRQAPGKGLEWVAKISPGGSWTYYSDTVTDRFTFSLDTSKSTAYLQMNSLRAEDTAVYYCARQLWGYYALDIWGQGTLVTVSS
VL: DIQLTQSPSSLSASVGDRVTITCSASISVSYLYWYQQKPGKAPKLLIYDDSSLASGVPSRFSGSGSGTDFTLTISSLQPEDFATYYCQQWSGYPYTFGQGTKVEIK
notes: IgG1; variable domains only; VL is variant III
[1]
  Kd: 0.403 nM
  koff: 0.000607 s⁻¹
  kon: 1.5e+06 M⁻¹ s⁻¹
[2]
  Kd: 0.195 nM
  koff: 0.000238 s⁻¹
  kon: 1.22e+06 M⁻¹ s⁻¹

B2: Anti-IL-6 antibody, heavy chain S35H, G66D, L100G / light chain M32L, M50D, N52S, M88Q (antibody, IgG1, V domains shown)
VH: B1 VH with L100G
VL: B1 VL
notes: as for B1
[1]
  Kd: 0.233 nM
  koff: 0.0016 s⁻¹
  kon: 6.87e+06 M⁻¹ s⁻¹
[2]
  Kd: 0.251 nM
  koff: 0.000694 s⁻¹
  kon: 2.76e+06 M⁻¹ s⁻¹

B3: Anti-IL-6 antibody, heavy chain S35H, G66D, L100A / light chain M32L, M50D, N52S, M88Q (antibody, IgG1, V domains shown)
VH: B1 VH with L100A
VL: B1 VL
notes: as for B1
[1]
  Kd: 0.0834 nM
  koff: 0.00486 s⁻¹
  kon: 5.82e+07 M⁻¹ s⁻¹
[2]
  Kd: 0.109 nM
  koff: 0.000406 s⁻¹
  kon: 3.72e+06 M⁻¹ s⁻¹

B4: anti-IL-6 antibody, heavy chain T63K, G66D / light chain M32L, M50D, N52S, M88Q (antibody, IgG1, V domains shown)
VH: B1 VH with H35S, T63K
VL: B1 VL
notes: Full IgG1 (Expi293); VL = variant III
[3]
  Kd: 0.252 nM
  koff: 0.000401 s⁻¹
  kon: 1.59e+06 M⁻¹ s⁻¹
[4]
  Kd: 0.246 nM
  koff: 0.000529 s⁻¹
  kon: 2.15e+06 M⁻¹ s⁻¹

B5: Anti-IL-6 antibody, heavy chain S35H, G66D, L100T / light chain M32L, M50D, N52S, M88Q (antibody, IgG1, V domains shown)
VH: B1 VH with L100T
VL: B1 VL
notes: as for B1
[1]
  Kd: 0.204 nM
  koff: 0.00278 s⁻¹
  kon: 1.36e+07 M⁻¹ s⁻¹
[2]
  Kd: 0.263 nM
  koff: 0.000481 s⁻¹
  kon: 1.83e+06 M⁻¹ s⁻¹

B6: anti-IL-6 antibody, heavy chain T63K, G66D / light chain M32L, M50D, N52S, M88Q (antibody, human IgG1, V domains shown)
VH: B1 VH with H35S, T63K
VL: B1 VL
notes: Human IgG1
[5]
  Kd: 0.252 nM
  koff: 0.000401 s⁻¹
  kon: 1.59e+06 M⁻¹ s⁻¹
[6]
  Kd: 0.246 nM
  koff: 0.000529 s⁻¹
  kon: 2.15e+06 M⁻¹ s⁻¹

B7: anti-IL-6 antibody, heavy chain T65Q, G66D / light chain M32L, M50D, N52S, M88Q (antibody, IgG1, V domains shown)
VH: B1 VH with H35S, T65Q
VL: B1 VL
notes: as for B4
[3]
  Kd: 0.209 nM
  koff: 0.00038 s⁻¹
  kon: 1.82e+06 M⁻¹ s⁻¹
[4]
  Kd: 0.258 nM
  koff: 0.000562 s⁻¹
  kon: 2.18e+06 M⁻¹ s⁻¹

B8: Anti-IL-6 antibody, heavy chain WT / light chain WT (antibody, IgG1, V domains shown)
VH: B1 VH with H35S, D66G
VL: B1 VL with L32M, D50M, S52N, Q88M
notes: IgG1; variable domains only; also called parent; wild-type
[1]
  Kd: 0.649 nM
  koff: 0.000559 s⁻¹
  kon: 861000 M⁻¹ s⁻¹
[2]
  Kd: 0.214 nM
  koff: 0.000132 s⁻¹
  kon: 615000 M⁻¹ s⁻¹

B9: anti-IL-6 antibody, heavy chain S35H, G66D / light chain M32L, M50D, N52S, M88Q (antibody, human IgG1, V domains shown)
VH: B1 VH
VL: B1 VL
notes: Human IgG1
[5]
  Kd: 0.212 nM
  koff: 0.000254 s⁻¹
  kon: 1.2e+06 M⁻¹ s⁻¹
[6]
  Kd: 0.166 nM
  koff: 0.000539 s⁻¹
  kon: 3.24e+06 M⁻¹ s⁻¹

B10: anti-IL-6 antibody, heavy chain S35H, G66D / light chain M32L, M50D, N52S, M88Q (antibody, IgG1, V domains shown)
VH: B1 VH
VL: B1 VL
notes: as for B4
[3]
  Kd: 0.212 nM
  koff: 0.000254 s⁻¹
  kon: 1.2e+06 M⁻¹ s⁻¹
[4]
  Kd: 0.166 nM
  koff: 0.000539 s⁻¹
  kon: 3.24e+06 M⁻¹ s⁻¹

B11: dual inhibitor molecule L (AntiIL-6-VEGF Trap) (other)
heavy: EVQLVESGGGLVQPGGSLRLSCAASGFTFSPFAWSWVRQAPGKGLEWVAKISPGGSWTYYSDTVTDRFTFSLDTSKSTAYLQMNSLRAEDTAVYYCARQLWGYYALDVWGQGTLVTVSSASTKGPSVFPLAPSSKSTSGGTAALGCLVKDYFPEPVTVSWNSGALTSGVHTFPAVLQSSGLYSLSSVVTVPSSSLGTQTYICNVNHKPSNTKVDKKVEPKSCGGGGSGGGGSSDTGRPFVEMYSEIPEIIHMTEGRELVIPCRVTSPNITVTLKKFPLDTLIPDGKRIIWDSRKGFIISNATYKEIGLLTCEATVNGHLYKTNYLTHRQTNTIIDVVLSPSHGIELSVGEKLVLNCTARTELNVGIDFNWEYPSSKHQHKKLVNRDLKTQSGSEMKKFLSTLTIDGVTRSDQGLYTCAASSGLMTKKNSTFVRVHEKDKTHTCPPCPAPEAAGAPSVFLFPPKPKDTLMISRTPEVTCVVVDVSHEDPEVKFNWYVDGVEVHNAKTKPREEQYNSTYRVVSVLTVLHQDWLNGKEYKCKVSNKALPAPIEKTISKAKGQPREPQVYTLPPSREEMTKNQVSLTCLVKGFYPSDIAVEWESNGQPENNYKTTPPVLDSDGSFFLYSKLTVDKSRWQQGNVFSCSVMHEALHNHYTQKSLSCSPGKPGK
light: DIQLTQSPSSLSASVGDRVTITCSASISVSYLYWYQQKPGKAPKLLIYDDSNLASGVPSRFSGSGSGTDFTLTISSLQPEDFATYYCQQWSGYPYTFGQGTKVEIKRTVAAPSVFIFPPSDEQLKSGTASVVCLLNNFYPREAKVQWKVDNALQSGNSQESVTEQDSKDSTYSLSSTLTLSKADYEKHKVYACEVTHQGLSSPVTKSFNRGEC
notes: Trap-antibody fusion, VEGF trap between the Fab region (VH variant II) and the Fc; light chain variant V
[7]
  Kd: 0.436 nM
  koff: 0.00065 s⁻¹
  kon: 1.49e+06 M⁻¹ s⁻¹
[8]
  Kd: 0.239 nM
  koff: 0.000169 s⁻¹
  kon: 705000 M⁻¹ s⁻¹
